This data set concerns the molecule itself. Description: crystal structure; Form I crystals, P4(3)2(1)2, 3.4 Å; Tn3 resolvase mixed with site III DNA duplex in a 2:1.25 molar ratio; one dimer-site III DNA complex in the asymmetric unit; step: two subunits in the DNA-bound dimer.

The record followed here is PMC9943657, “Structural basis for topological regulation of Tn3 resolvase” (Nucleic Acids Research, 2021).

B1: Tn3 resolvase (wild-type, with SHHHHHH added after the natural C-terminus) (enzyme, transposon Tn3, UniProt P0ADI2 1-185, looked up)
chain: MRIFGYARVSTSQQSLDIQIRALKDAGVKANRIFTDKASGSSTDREGLDLLRMKVEEGDVILVKKLDRLGRDTADMIQLIKEFDAQGVAVRFIDDGISTDGDMGQMVVTILSAVAQAERRRILERTNEGRQEAKLKGIKFGRRRTVDRNVVLTLHQKGTGATEIAHQLSIARSTVYKILEDERAS
notes: Tn3 resolvase, wild type, encoded by the Tn3 transposon; GenBank CAA23885.1; The 7 C-terminal residues (SHHHHHH) were disordered in the crystal structure; also called WT Tn3 resolvase; source: E. coli Rosetta DE3 pLysS from plasmid pSA1121; not shown: SHHHHHH (Ser-His6), C-terminal, kept
For the protein B1, the binding result is on record as “binds”.
